According to patent US20120034232A1 (INNATE PHARMA, published 2012):
Numbering of substitutions follows the chain as printed. Blank lines part the entries; values can stand above or below the molecule they belong to.

Assays:
[1] = molecular target: recombinant human His-tagged TLR3 extracellular domain recombinant protein (R&D systems, #1487-TR-050) (human) (UniProt O15455); assay: SPR (Biacore T100), rhTLR3 immobilised on CM5 chip, antibody in solution, bivalent affinity, pH 5.6, mean of 2 or 3 experiments
[2] = molecular target: recombinant human His-tagged TLR3 extracellular domain recombinant protein (R&D systems, #1487-TR-050) (human) (UniProt O15455); assay: SPR (Biacore T100), rhTLR3 immobilised on CM5 chip, antibody in solution, bivalent affinity, pH 7.2, mean of 2 or 3 experiments
[3] = molecular target: T1, human TLR3 expressed in cells (293T cells stably transfected with pUNO-hTLR3); endogenous TLR3 of human … (human, UniProt O15455 24-904); assay: cell-based or functional assay
[4] = molecular target: T2, recombinant human His-tagged TLR3 extracellular domain recombinant protein (R&D systems, #1487-TR-050) (human, UniProt O15455 24-704); assay: ELISA, His-tagged rec TLR3 (reference: His-tagged rec TLR4) on Ni-NTA plates, hybridoma supernatant
T2 construct: Bought protein; also called recombinant human TLR3; rhTLR3; not shown: His tag

[5] = molecular target: T1, human TLR3 expressed in cells (293T …); assay: cell-based or functional assay; remark: listed apart in the source

Kd [1]: 9 nM
Kd [2]: 45 nM
Molecule: anti-TLR3 antibody TLR3.7 (eBiosciences)

IC50 of inhibition of luciferase expression, polyAU 100 µg/ml [3]: < 5 µg/mL
ratio of DO obtained in TLR3 ELISA to DO obtained in TLR4 ELISA [4]: > 10
IC50 of inhibition of luciferase expression in 293-huTLR3 cells, polyAU 300 µg/ml [5]: 1.83 µg/mL
B3: anti-TLR3 monoclonal antibody 23C8 (antibody, V domains shown)
VH: EVQLQQSGPELVKPGASVKISCKASGYSFTGYFMHWVKQSHVKSLEWIGRINPYNGATSYNQNFKDKASLTVDKSSSTSYMELHSLTSEDSAVYYCVRDDGGNYPFDYWGQGTTLTVS
VL: DIQMTQSPASLSASVGETVTITCRASENIYSYLAWYQQKQGKSPQLLVYYAKTLAEGVPSRFSGSGTGTQFSLKINSLQPEDFGSYYCQHHYGTPYTFGGGTKLEIK

ratio of DO obtained in TLR3 ELISA to DO obtained in TLR4 ELISA [4]: > 10
IC50 of inhibition of luciferase expression in 293-huTLR3 cells, polyAU 300 µg/ml [5]: 5.56 µg/mL
B4: anti-TLR3 monoclonal antibody 28F11 (antibody, V domains shown)
VH: EVQLQQSGPELVKPGASVKISCKASGYSFTGYYIHWVKQSHVKSLEWIGRINPYYGATSYNQNFKDKANLTVDKSSSTAYMELHSLTSDDSAVYYCARSTKLGYLDYWGQGTTLTVS
VL: B3 VL with Y32N, V48I, Y50N, T67S, F71Y, S72F, Y96F

The remaining lines, values behind:

B1: anti-TLR3 monoclonal antibody 34A3 (antibody, V domains shown)
VH: EIQLQQSGPELVKPGASVKVSCKASGYVFTTYSIYWVKQSHGKSLEWIGYIDPYNGDTSYNQKFKGKATLTVDKSSSTAYMHLNSLTSEDSTVYYCAREGNYYGYFDYWGQGTTLTVS
VL: QIVLTQSPALMSASPGEKVTMTCSASSSVSYMFWYQQKPRSSPKPWIYLTSNLASGVPARFSGSGSGTSYSLTISSMEAEDAATYYCQQWTGNPPTFGGGTKLEIK
IC50 of inhibition of luciferase expression, polyAU 100 µg/ml [3]: < 5 µg/mL

B2: anti-TLR3 monoclonal antibody 29H3 (antibody, V domains shown)
VH: DVQLQESGPDLVKPSQSLSLTCTVTGYSITSGYSWHWIRQFLGNKLEWMGYIHYSGITNYNPSLRSRISFTRDTSKNQFFLQLNSVTTEDTATYYCARDGYYGMDYWGQGTSVTVS
VL: DIVMTQSQKFMSTSVGDRVSITCKASQNVRTSVAWYQQKPGQSPKALIYLASNRHTGVPDRFTGSGSGTDFTLTVSNIQSEDLADYFCLQHWNYPYTFGGGTKLEIK
notes: also called 29H3.7; CNCM I-4187
ratio of DO obtained in TLR3 ELISA to DO obtained in TLR4 ELISA [4]: > 10
